Data reported in publication doi:10.1101/2022.04.21.489128.

Target: wild-type FliM (Vibrio alginolyticus flagellar rotor C-ring protein) with an N-terminal His-tag (V. alginolyticus)
Experiment: SEC

Substance “wild-type FliM (Vibrio alginolyticus flagellar rotor C-ring protein) with an N-terminal His-tag (natural protein)” has a stoichiometry N of 2.
